Results taken from doi:10.1101/2025.02.17.637997, “Phosphorylation-State Modulated Binding of HSP70: Structural Insights and Compensatory Protein Engineering” (bioRxiv, 2025).
Where “and” joins values, the source holds several entries; their conditions need not be identical. Equal entries are not always repeated. One block for each molecule: values may come before it. Ends that are not written are not given here. * marks the point of attachment. FITC = O=C1OC2(c3ccc(O)cc3Oc3cc(O)ccc32)c2ccc(NC(=S)*)cc21; Ahx = NCCCCCC(=O)O

Key:
[1] = target: CHIP (UniProt Q9UNE7); assay: fluorescence polarization titration; settings: reference: unphosphorylated EEVD peptide; sites T636
[2] = target: CHIP TPR-CC (Homo sapiens, UniProt Q9UNE7); assay: Fluorescence polarization, CHIP TPR-CC fragment; format: binding; settings: FP; Fig. 2C
Description: (§1) A complete list of vectors is listed in Table S1 and deposited at Addgene (pending ID). Plasmids were maintained and propagated in DH5-alpha E. coli and purified using the Miniprep plasmid kit (Qiagen) or Quantum Prep® Plasmid Midiprep Kit (Bio-Rad). We used the Q5 Site-Directed Mutagenesis Kit (NEB) or […] II XL (NC9045762, Agilent Technologies) site-directed mutagenesis kit for editing plasmids and validated via DNA sequencing. Lifetein or Genscript synthesized the peptides used in the study. […] The amino-terminal biotin-labeled HSP70 tail peptide (biotin-[…], termed as biotin-EEVD) and the amino-terminal biotin-labeled pT-HSP70 tail peptide (biotin-GSGSGP(pT)IEEVD, termed as biotin-pEEVD) were purchased (Lifetein). The peptides used for fluorescent polarization were N-FITC-Ahx-[…] (EEVD) or N-FITC-Ahx-GSGP(pT)IEEVD (pEEVD). Recombinant CHIP-TPR constructs were recombinantly expressed using the pHis//2 CHIP-TPR (21–154) plasmid and purified as previously described ([21]) and additional CHIP proteins were purified as previously described ([22]).
(§2) The N-terminally-labelled peptides were loaded into PCR reaction tubes at 2X (40 nM), with the final concentration being 20 nM. Recombinant CHIP constructs were added into the tubes at the indicated concentrations. […] The polarization reads were normalized to the dilution buffer. […]

[3] = tested on: CHIP TPR-UBOX; assay: Fluorescence polarization, CHIP TPR-UBOX (CC deletion); format: binding; settings: FP; Fig. 2C
Description: as §1, §2

[4] = target: T1, CHIP-TPR (21–154) (UniProt Q9UNE7 21-154); assay: biolayer interferometry, peptide on sensor; settings: reference: biotin-EEVD peptide; sites T636
T1 construct: also called extended TPR domain of CHIP
T1 sequence (looked up): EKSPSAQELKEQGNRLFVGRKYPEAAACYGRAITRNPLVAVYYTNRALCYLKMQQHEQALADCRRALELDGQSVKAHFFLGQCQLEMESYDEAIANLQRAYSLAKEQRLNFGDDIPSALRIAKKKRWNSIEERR

[5] = tested on: SmBiT-CHIP-WT; assay: NanoBiT live-cell interaction, HEK-293, SmBiT-CHIP-WT; format: cell-based; settings: HEK-293, CHIP-WT, luminescence over 20 min, three independent transfections, Fig. 1E
Description: (§3) HEK293 and COS-7 cells were acquired from the UNC Lineberger Comprehensive Cancer Center Tissue Culture Facility. Cultures were maintained in Dulbecco’s Modified Eagle Medium with 10% fetal bovine serum at 37 °C and 5% CO2. Using the manufacturers’ instructions, X-tremeGENE 9 was used to transfect cells with plasmid DNA except for NanoBiT constructs, in which case we used Lipofectamine 3000 (Thermo Fisher Scientific). Where indicated, twenty-four hours post-transfection, cells were treated with 20 μM MG-132 (Selleck Chemicals) for 6 h or 100 μM cycloheximide (Sigma-Aldrich) for the stated duration.
(§4) NanoBiT Protein: Protein Interaction System (Promega) was used to measure protein-protein interaction data following the manufacturer’s instructions. As previously described, LgBiT-HSP70 and SmBiT-CHIP construct interactions were used as positive controls ([22]). Twenty-four hours post-transfection, the cells were collected, replated in 96-well clear bottom white-sided tissue culture plates, and maintained at 37 °C and 5% CO2 for 45 min. Nano-Glo Live Cell Reagent (Promega) was added, and luminescence was measured using a CLARIOstar microplate reader over 20 minutes. The total area under the maximum luminescence curve was quantified and used to compare changes in HSP70-CHIP interactions relative to the WT-WT conditions.

[6] = tested on: SmBiT-CHIP-G132N; assay: NanoBiT live-cell interaction, COS-7, SmBiT-CHIP-G132N; format: cell-based; settings: COS-7, CHIP-G132N, three independent transfections, Fig. 1F
Description: as §3, §4

[7] = tested on: SmBiT-CHIP-G132N; assay: NanoBiT live-cell interaction, HEK-293, SmBiT-CHIP-G132N; format: cell-based; settings: HEK-293, CHIP-G132N, three independent transfections, p = 0.2114 vs. Δ with CHIP-WT, Fig. 1E
Description: as §3, §4

[8] = tested on: HSP70 steady-state levels in HEK-293 cells; assay: Cycloheximide chase of HSP70 steady-state levels, HEK-293; format: cell-based; settings: Flag immunoblot, representative, Fig. S1
Description: as §3
(§5) Samples were collected in a lysis buffer composed of 50 mM Tris-HCl (pH 7.4), 150 mM NaCl, 2 mM EDTA, and 1% Triton X-100, supplemented with 1X Halt protease and phosphatase inhibitor (Thermo Scientific). The samples were then sonicated and combined with Laemmli sample buffer (Bio-Rad). The lysates were resolved on 4–15% TGX Stain-Free gels (Bio-Rad) and transferred to PVDF membranes (Bio-Rad). The membranes were blocked in 5% milk and incubated with primary antibodies (Table S3) overnight at 4°C. Following this, HRP-conjugated secondary antibodies (Cell Signaling Technology) were applied. Detection was performed using Lumigen ECL Ultra (Lumigen, tma-100), and the blots were imaged with the ChemiDoc Imaging System (BioRad).

[9] = tested on: SmBiT-CHIP-WT; assay: NanoBiT live-cell interaction, COS-7, SmBiT-CHIP-WT; format: cell-based; settings: COS-7, CHIP-WT, three independent transfections, Fig. 1F
Description: as §3, §4

[10] = target: T2, CHIP-WT (Homo sapiens, UniProt Q9UNE7); assay: Co-immunoprecipitation of HSP70 with CHIP-WT, COS-7; format: cell-based; settings: Co-IP of MYC-CHIP-WT, vs HSP70-WT and HSP70-T636A, densitometry, Fig. 1I
T2 construct: His; made in house
T2 sequence (Q9UNE7 1-303): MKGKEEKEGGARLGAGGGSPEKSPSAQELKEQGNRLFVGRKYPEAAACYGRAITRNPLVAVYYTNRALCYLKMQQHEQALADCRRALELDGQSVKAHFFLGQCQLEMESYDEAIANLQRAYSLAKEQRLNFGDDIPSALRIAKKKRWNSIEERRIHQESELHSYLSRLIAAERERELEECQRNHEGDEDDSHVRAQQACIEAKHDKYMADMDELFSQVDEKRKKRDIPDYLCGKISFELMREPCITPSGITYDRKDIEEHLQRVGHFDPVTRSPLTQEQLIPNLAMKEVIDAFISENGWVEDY
Description: as §5
(§6) Ezview™ Red Anti-c-Myc Affinity Gel Beads (Sigma-Aldrich) were used for co-immunoprecipitation of myc-tagged proteins. Proteins were eluted via boiling before western blot analysis.

[11] = tested on: HSP70 steady-state levels in COS-7 cells; assay: Cycloheximide chase of HSP70 steady-state levels, COS-7; format: cell-based
Description: as §3, §5

[12] = tested on: HEK-293 cells; settings: HEK-293, electrical impedance; ref [16]; cited from earlier work
[13] = target: T1, CHIP-TPR (21–154); assay: fluorescence polarisation; 20 nM N-terminally FITC-labelled peptide, recombinant CHIP constructs at increasing concentrations, 30 minutes at room temperature; one site/total binding fit with Bmax constrained to 100; settings: both partners purified
[14] = target: T3, recombinant full-length CHIP-WT (UniProt Q9UNE7 1-303); assay: as above; settings: both partners purified
T3 sequence (looked up): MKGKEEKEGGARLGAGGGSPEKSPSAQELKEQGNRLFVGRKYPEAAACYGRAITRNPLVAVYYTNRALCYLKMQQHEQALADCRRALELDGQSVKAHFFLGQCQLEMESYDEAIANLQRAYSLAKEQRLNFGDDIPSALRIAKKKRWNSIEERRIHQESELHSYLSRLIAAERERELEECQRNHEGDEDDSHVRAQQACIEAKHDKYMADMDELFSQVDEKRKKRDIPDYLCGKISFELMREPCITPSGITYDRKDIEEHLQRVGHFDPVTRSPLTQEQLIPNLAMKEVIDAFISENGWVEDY

[15] = target: T4, recombinant full-length CHIP-G132N (UniProt Q9UNE7 1-303, G132N); assay: as above; settings: both partners purified
T4 construct: CHIP, full-length recombinant protein with G132N
T4 sequence (looked up): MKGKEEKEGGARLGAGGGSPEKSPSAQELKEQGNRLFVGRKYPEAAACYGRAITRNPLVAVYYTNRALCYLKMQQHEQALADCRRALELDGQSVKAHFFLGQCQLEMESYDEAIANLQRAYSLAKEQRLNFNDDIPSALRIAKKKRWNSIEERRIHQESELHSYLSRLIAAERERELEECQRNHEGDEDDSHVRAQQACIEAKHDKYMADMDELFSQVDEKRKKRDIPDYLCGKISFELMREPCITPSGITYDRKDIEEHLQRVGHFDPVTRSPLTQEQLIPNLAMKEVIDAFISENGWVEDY

[16] = target: recombinant full-length CHIP-G132N (UniProt Q9UNE7 1-303, G132N); assay: FP
[17] = target: recombinant full-length CHIP-K30A (UniProt Q9UNE7 1-303, K30A); assay: FP
[18] = target: T5, CHIP domain fragment: TPR with the coiled-coil domain; assay: FP
T5 chain: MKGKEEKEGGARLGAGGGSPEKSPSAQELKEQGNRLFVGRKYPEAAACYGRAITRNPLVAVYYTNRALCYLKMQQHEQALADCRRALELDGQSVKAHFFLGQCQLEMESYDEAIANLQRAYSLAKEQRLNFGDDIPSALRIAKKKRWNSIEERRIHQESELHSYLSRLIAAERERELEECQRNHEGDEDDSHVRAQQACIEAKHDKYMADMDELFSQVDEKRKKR

[19] = target: T6, recombinant full-length CHIP-WT (UniProt Q9UNE7 1-303); assay: FP
T6 chain: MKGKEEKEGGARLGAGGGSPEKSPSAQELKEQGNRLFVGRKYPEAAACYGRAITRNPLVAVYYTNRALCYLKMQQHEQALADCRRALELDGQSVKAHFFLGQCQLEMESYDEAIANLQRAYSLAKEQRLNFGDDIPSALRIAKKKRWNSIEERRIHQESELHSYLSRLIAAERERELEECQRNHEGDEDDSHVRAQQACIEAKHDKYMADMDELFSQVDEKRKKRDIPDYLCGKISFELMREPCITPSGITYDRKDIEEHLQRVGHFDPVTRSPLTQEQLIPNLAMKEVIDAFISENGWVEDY

[20] = tested on: LgBiT-HSP70 T636A/D; assay: NanoBiT live-cell interaction, COS-7, CHIP variants with LgBiT-HSP70; format: cell-based; settings: Fig. 1F
Description: as §3, §4

[21] = tested on: LgBiT-HSP70 T636A/D; assay: NanoBiT live-cell interaction, HEK-293, CHIP variants with LgBiT-HSP70; format: cell-based; settings: compared with CHIP-WT, Fig. 1E
Description: as §3, §4

[22] = tested on: HSP70; assay: Co-immunoprecipitation of CHIP variants with HSP70, COS-7; format: cell-based; settings: Co-IP of MYC-CHIP, Fig. 1I
Description: as §5, §6

Molecule: N-FITC-Ahx-GSGPTIEEVD [unphosphorylated HSP70 tail peptide used for fluorescent polarization]
- EEVD tail interaction, effect of the coiled-coil domain [2]: minimal change
- EEVD tail peptide interaction with U-box moved closer to TPR [3]: eliminated EEVD tail peptide interactions

Molecule: HSP70 C-terminal tail (from UniProt P0DMV8) biotin-pEEVD (pT636) peptide
- fold change [4]: weaker

B1: N-FITC-Ahx-GSGPTIEEVD (peptide)
peptide: {FITC-Ahx}-GSGPTIEEVD
notes: C-terminal tail of HSP70; tracer of the fluorescence polarisation assay; also called HSP70 peptide tracer; source: synthetic peptide (Lifetein or Genscript)
- binding result [13]: binds
- binding result [14]: binds
- binding result [15]: binds
- Kd [16]: 9.2 µM
- Kd [17]: 66 µM
- Kd [18]: 28 µM
- Kd [19]: 6.5 µM and 7 µM

B2: CHIP-K30A: substitution known to disrupt the ability of CHIP's TPR domain to bind EEVD motifs (protein)
chain: MKGKEEKEGGARLGAGGGSPEKSPSAQELAEQGNRLFVGRKYPEAAACYGRAITRNPLVAVYYTNRALCYLKMQQHEQALADCRRALELDGQSVKAHFFLGQCQLEMESYDEAIANLQRAYSLAKEQRLNFGDDIPSALRIAKKKRWNSIEERRIHQESELHSYLSRLIAAERERELEECQRNHEGDEDDSHVRAQQACIEAKHDKYMADMDELFSQVDEKRKKRDIPDYLCGKISFELMREPCITPSGITYDRKDIEEHLQRVGHFDPVTRSPLTQEQLIPNLAMKEVIDAFISENGWVEDY
- luminescence of CHIP variant with HSP70 constructs [20]: limited luminescence detected
- luminescence of CHIP variant with HSP70-T636A/D [21]: robust decrease in luminescence
- co-precipitation of HSP70 by CHIP variant [22]: failed to precipitate appreciable amounts of HSP70 construct above background levels

Second part, led by results:

- fold change [1]: weaker
Molecule: HSP70 C-terminal tail (from UniProt P0DMV8) pEEVD (pT636) peptide

- reduction of HSP70 co-precipitated by CHIP-WT [10]: over 90%
Molecule: HSP70-T636D: phospho-mimetic version of HSP70
- decrease in luminescence compared to HSP70-T636A [5]: 42%
- Δ luminescence comparing HSP70-T636D to HSP70-T636A [6]: −66%
- decrease in luminescence compared to HSP70-T636A [7]: 57%
- percent change of HSP70 level from time 0 ([8]; cycloheximide +MG132, 6 h (column from layout)): +98%
- percent change of HSP70 level from time 0 ([8]; cycloheximide, 6 h, without MG132 (column from layout)): -80%
- Δ luminescence comparing HSP70-T636D to HSP70-T636A [9]: −85%
- loss of HSP70 steady-state level after inhibiting translation ([11]; cycloheximide 100 μM, six hours, change from time 0, representative immunoblot, Fig. 1J): 76%
- HSP70 steady-state level after cycloheximide ([11]; cycloheximide, six hours, compared to HSP70-WT and HSP70-T636A, Fig. 1J): more robust decreases
- HSP70 steady-state level with proteasome inhibitor ([11]; with MG-132, Fig. 1J): recovery of protein levels
- effect on cell growth / proliferation [12]: no effect
